Source: publication PMC4065332, “PEX14 binding to Arabidopsis PEX5 has differential effects on PTS1 and PTS2 cargo occupancy of the receptor” (Febs Letters, 2014)
Blank lines part the entries; values can stand above or below the binder they belong to. Where no end group is shown, it is not given here. lissamine = lissamine: fluorescent label (lissamine) on the peptide

Experiments:
Settings in all cases: both partners purified
[1] = biological target: T1, PEX5 (340–728), termed PEX5C (Arabidopsis thaliana, UniProt Q9FMA3 340-728); assay: far-Western, overlay or dot blot; purified PEX5 constructs pipetted onto nitrocellulose, blocked in 3% BSA PBS-T, probed 1 h with peptide-HRP (200 nM) or PEX14N-HRP (50 nM), ECL; for unloading then incubated with PEX14N 0.2 μM 1 h and 2 μM 16 h at 4 °C
T1 construct: Arabidopsis PEX5 residues 340-728; holds six of the nine W-X3-F/Y motifs and the TPR domain; lacks residues 314-334; also called His6-PEX5C; AtPEX5C; source: E. coli, purified via IMAC
T1 sequence (looked up): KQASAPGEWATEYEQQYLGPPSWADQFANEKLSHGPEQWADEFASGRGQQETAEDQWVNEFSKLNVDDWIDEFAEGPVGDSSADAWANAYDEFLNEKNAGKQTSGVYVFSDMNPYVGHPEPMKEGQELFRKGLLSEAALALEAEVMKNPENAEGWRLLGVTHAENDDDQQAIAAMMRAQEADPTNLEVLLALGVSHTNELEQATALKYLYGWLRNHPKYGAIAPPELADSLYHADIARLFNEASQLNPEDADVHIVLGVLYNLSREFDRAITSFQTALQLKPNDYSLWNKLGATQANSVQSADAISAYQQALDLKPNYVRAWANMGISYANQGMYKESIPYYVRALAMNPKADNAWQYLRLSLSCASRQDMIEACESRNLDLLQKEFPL

[2] = biological target: T1, PEX5 (340–728), termed PEX5C; assay: fluorescence polarisation; fluorescence anisotropy; dilution series of PEX5C (1 μM–0.04 nM) with lissamine-YQSKL (100 nM); HEPES 20 mM, NaCl 150 mM, pH 7.5; fitted to a 1:1 binding model; without PEX14N
[3] = biological target: T1, PEX5 (340–728), termed PEX5C; assay: fluorescence polarisation; fluorescence anisotropy; the same dilution series of PEX5C with lissamine-YQSKL (100 nM) after addition of PEX14N to a constant 1 μM; HEPES 20 mM, NaCl 150 mM, pH 7.5

binding result [1]: binds
B1: HRP–YQSKL (CGGGYQSKL coupled to HRP–maleimide) (peptide)
peptide: C(HRP‑maleimide)GGGYQSKL
notes: generic PTS1 cargo peptide; also called HRP-SKL; peptide-HRP; source: synthetic peptide, coupled to HRP-maleimide (Sigma)

Kd [2]: 8.6 ± 4 nM
Kd [3]: 11.5 ± 3.4 nM
B2: lissamine-YQSKL (peptide)
peptide: lissamine-YQSKL
notes: canonical PTS1 cargo peptide; The name puts the lissamine before the peptide; also called lissamine-PTS1; PTS1
